Assay results: patent publication US9428773B2, “Methods of producing acetoin and 2,3-butanediol using photosynthetic microorganisms” (The Regents of the University of California, priority 2012, dated 2016)

B1: adh (L. p.): Leuconostoc pseudomesenteroides CHCC 2114 secondary alcohol dehydrogenase, NADPH, S-installing (SEQ ID NO: 19) (protein)
chain: MTKKVAMVTGGAQGIGEAIVRRLSADGFAVAVADLNEAKSKEVATDIEKNGGTAIAVKLDVSDREGFFAAVKEVAEKLGGFDVLVNNAGLGPTTPIDTITPELFDKVYHINVAGDIWGIQAAVEQFKKNGNGGKIINATSQAGVVGNPNLSLYSSTKFAVRGLTQVAARDLAEQNITVNAYAPGIVKTPMMFDIAHEVGKNAGKDDEWGMQTFAKDIALKRLSEPEDVAAAVAFLAGPDSNYITGQTIEVDGGMQFH
modifications: Leuconostoc pseudomesenteroides
B2: sADH (T. b.): Thermoanaerobacter brockii HTD4 secondary alcohol dehydrogenase, NADPH, R-installing (SEQ ID NO: 23) (protein, listed as Thermoanaerobacter brockii)
chain: MKGFAMLSIGKVGWIEKEKPAPGPFDAIVRPLAVAPCTSDIHTVFEGAIGERHNMILGHEAVGEVVEVGSEVKDFKPGDRVVVPAITPDWRTSEVQRGYHQHSGGMLAGWKFSNVKDGVFGEFFHVNDADMNLAHLPKEIPLEAAVMIPDMMTTGFHGAELADIELGATVAVLGIGPVGLMAVAGAKLRGAGRIIAVGSRPVCVDAAKYYGATDIVNYKDGPIESQIMNLTEGKGVDAAIIAGGNADIMATAVKIVKPGGTIANVNYFGEGEVLPVPRLEWGCGMAHKTIKGGLCPGGRLRMERLIDLVFYKRVDPSKLVTHVFRGFDNIEKAFMLMKDKPKDLIKPVVILA
B3: sADH (C. p.): Candida parapsilosis M203011 secondary alcohol dehydrogenase, NADPH, S-installing (SEQ ID NO: 17) (protein, listed as Candida parapsilosis)
chain: MGEIESYCNKELGPLPTKAPTLSKNVLDLFSLKGKVASVTGSSGGIGWAVAEAYAQAGADVAIWYNSHPADEKAEHLQKTYGVHSKAYKCNISDPKSVEETISQQEKDFGTIDVFVANAGVTWTQGPEIDVDNYDSWNKIISVDLNGVYYCSHNIGKIFKKNGKGSLIITSSISGKIVNIPQLQAPYNTAKAACTHLAKSLAIEWAPFARVNTISPGYIDTDITDFASKDMKAKWWQLTPLGREGLTQELVGGYLYLASNASTFTTGSDVVIDGGYTCP
B4: sADH (C. b.): Clostridium beijerinckii NRRL B593 secondary alcohol dehydrogenase, NADPH, R-installing (SEQ ID NO: 21) (protein, listed as Clostridium beijerinckii)
chain: MKGFAMLGINKLGWIEKERPVAGSYDAIVRPLAVSPCTSDIHTVFEGALGDRKNMILGHEAVGEVVEVGSEVKDFKPGDRVIVPCTTPDWRSLEVQAGFQQHSNGMLAGWKFSNFKDGVFGEYFHVNDADMNLAILPKDMPLENAVMITDMMTTGFHGAELADIQMGSSVVVIGIGAVGLMGIAGAKLRGAGRIIGVGSRPICVEAAKFYGATDILNYKNGHIVDQVMKLTNGKGVDRVIMAGGGSETLSQAVSMVKPGGIISNINYHGSGDALLIPRVEWGCGMAHKTIKGGLCPGGRLRAEMLRDMVVYNRVDLSKLVTHVYHGFDHIEEALLLMKDKPKDLIKAVVIL

What was measured:
[1] = ADH activity in crude cell lysate of modified S. elongatus strains, oxidation of NAD(P)H with acetoin; assay type: biochemical; details: for ADH enzyme activity in crude cell lysate: expressed in S. elongatus, lysate isolated during production
Experimental: Enzyme Assays. S. elongatus cells were collected 72 h after induction by centrifugation (4000 g, 5 min, washed in 50 mM potassium phosphate buffer (pH 7.5) and resuspended in the same buffer. Crude extract were prepared with 0.1-mm glass beads and a Mini bead beater (Mini Bead Beater 8 (BioSpec Products, Inc., Bartlesville, Okla.)). The total protein determination was performed by Advanced Protein Assay Reagent from Cytoskeleton, Inc. (Denver, Colo.).
(§1) Alcohol dehydrogenase (ADH) activity was determined by measuring the oxidation of NAD(P)H. The reaction mixture contained 50 mM 3-(N-morpholino) propanesulfonic acid (MOPS) pH 7.0, 25 mM acetoin and 0.2 mM NAD(P)H. The consumption of NAD(P)H was monitored at 340 nm. One specific unit of ADH activity corresponds to the oxidation of 1 nmol of NAD(P)H per minute per mg of protein.
23BD production was detected in three out of four S. elongatus strains (FIG. 4C). […] The strain expressing adh (T. b.) produced 301 mg/L (R,R)-23BD with trace amounts of meso-23BD but also allowed for accumulation of acetoin (FIG. 4C). The strain expressing adh (C. b.) produced 270 mg/L (R,R)-23BD (major) and undetectable levels of acetoin, indicating high flux through the intermediate. The strain expressing adh (C. p.) produced 65 mg L^−1 23BD, with meso-23BD as the primary product and accumulated toxic levels of acetoin. The remaining S-installing adh (L. p.) was not active in S. elongatus, resulting only in accumulation of acetoin. […] Activity for adh (C. p.) was roughly 5-fold higher again than adh (C. b.), however low production and acetoin accumulation was observed, similar to the result in E. coli. […] The two sADH with highest production and lowest acetoin accumulation were further tested with the stronger ALDC gene alsD (A. h.). Both strains increased production, yielding 568 mg L^−1 from adh (T. b.) and 952 mg L^−1 from adh (C. b.), the latter of which is 3 fold higher than production with alsD (E. a.) over 72 hours (FIG. 4C).

[2] = sADH (ADH) activity in crude cell lysate of E. coli production strains, oxidation of NAD(P)H with acetoin; assay type: biochemical; details: expressed in E. coli, excess substrate, NADPH
Experimental: as §1
The resulting E. coli strains were cultured in modified M9 medium, containing 50 g/L glucose, at 30° C. for 40 h (FIG. 4B). […] The fourth strain, expressing adh (C. b.), maintained a relatively low acetoin concentration (less than 6% of total production) and produced 13.8 g/L total 23BD as a mixture of (R,R)-23BD and meso-23BD stereoisomers forming 74% and 21% of total production respectively (FIG. 4B). The strains expressing adh (T. b.) and adh (C. p.) produced 2.4 g/L and 14.2 g/L 23BD respectively with both isomers formed in roughly equal amounts in each. […] Enzyme activities measured from crude cell lysate isolated during production were high for both sADH (C. p.) and sADH (C. b.), at 265 and 440 nmol min^−1 mg^−1 respectively, when excess substrate was used (FIG. 4B). […] The major 23BD product of each of the adh expressing strains matched the stereochemistry predicted by previous characterization (41-43).

Molecule | ADH enzyme activity in crude cell lysate [1] | sADH enzyme activity in crude cell lysate [2] | fold higher activity than adh (C. b.) ([1]; S. elongatus crude cell lysate) | fold higher activity than adh (T. b.) ([1]; S. elongatus crude cell lysate)
B1 | could not be detected |  |  | 
B2 | 6.3 nmol min^−1 mg ^−1 | Relatively low activity |  | 
B3 |  | 265 nmol/min/mg | roughly 5 fold | 
B4 | 56.3 nmol min^−1 mg ^−1 | 440 nmol/min/mg |  | roughly 10 fold
